Measured values published in patent US20180155451A1 (published 2018).
Substitutions are numbered along the chain they refer to.

B1: J142-z73/L180-k (antibody, human IgG4 S228P, kappa)
heavy: QVQLVQSGSELKKPGASVKVSCKASGYTFTDNNMDWVRQAPGQGLEWMGDINTRSGGSIYNEEFQDRVTMTIDKSTGTAYMELSSLRSEDTAVYYCARRRSYGYYHDEWGEGTLVTVSSASTKGPSVFPLAPCSRSTSESTAALGCLVKDYFPEPVTVSWNSGALTSGVHTFPAVLQSSGLYSLSSVVTVPSSSLGTKTYTCNVDHKPSNTKVDKRVESKYGPPCPPCPAPEFLGGPSVFLFPPKPKDTLMISRTPEVTCVVVDVSQEDPEVQFNWYVDGVEVHNAKTKPREEQFNSTYRVVSVLTVLHQDWLNGKEYKCKVSNKGLPSSIEKTISKAKGQPREPQVYTLPPSQEEMTKNQVSLTCLVKGFYPSDIAVEWESNGQPENNYKTTPPVLDSDGSFFLYSRLTVDKSRWQEGNVFSCSVMHEALHNRFTQESLSLSP
light: DIQMTQSPSSLSASVGDRVTITCKASRNIERNLAWYQQKPGQAPELLIYSASRKESGVPDRFSGSRYGTDFTLTISSLQPEDLATYYCQQYYSPPLTFGGGTKVEIKRTVAAPSVFIFPPSDEQLKSGTASVVCLLNNFYPREAKVQWKVDNALQSGNSQESVTEQDSKDSTYSLSSTLTLSKADYEKHKVYACEVTHQGLSSPVTKSFNRGEC
notes: also called homomeric antibody against FX
B2: J300-z107/L210-k (antibody, human IgG4 S228P, kappa)
heavy: B1 heavy with T69I, I72V, G77D, Y95H, R100K, H106L, K198Q, F295Y, R408K, F435Y
light: B1 light with L83I, Y92S
notes: Homomeric by-product in the culture medium of cells that express Q407-z106/J300-z107/L210-k; The H chain gene was made by linking z107 downstream of J300; also called homomeric antibody against FX

How the values were obtained:
[1] = target: T1, Protein A (rProtein A Sepharose Fast Flow) (UniProt P38507 37-327); assay: Protein A affinity chromatography (rProtein A Sepharose Fast Flow); the species is 3.2% of the Protein G-purified control but is not found in the pH 3.6 or the pH 2.7 elution fraction (cation exchange analysis)
T1 construct: Bought chromatography resin
Protocol: (§1) CM filtered through ϕ0.22-μm filter was loaded onto rProtein A Sepharose Fast Flow column (GE Healthcare) equilibrated with D-PBS. Washes 1 and 2 and Elutions 1 and 2 shown in Table 76 were carried out (Elution 1 alone was performed for Q407-z106/J300-z107/L210-k). […] The quantity of CM to be loaded was adjusted in a way that the quantity of the loaded antibody is 20 mg/ml resine. Fractions eluted under each condition were collected and the components contained in each elution fraction were identified by cation exchange chromatography analysis. […] Samples purified by batchwise elution were used as controls.
(§2) The values represent the area of elution peak expressed in percentage.

[2] = target: T1, Protein A (rProtein A Sepharose Fast …); assay: Protein A affinity chromatography (rProtein A Sepharose Fast Flow); the species is 5.8% of the Protein G-purified control but is not found in the pH 3.6 elution fraction (cation exchange analysis)
Protocol: as §1, §2

Binder	binding result [1]	binding result [2]
B1	no binding	–
B2	–	no binding
